The values below come from patent publication US11998609B2, “Self-assembling antiviral prodrugs” (priority 2021, dated 2024).

A short description of data set [1]: In vivo pharmacokinetics and biodistribution. The protocol: Samples were dried under a N2 stream, reconstituted in 100 μl of 80% v/v LC-MS grade MeOH/H2O. 10 μl of the sample solution was injected into Waters Acquity/Xevo-G2 UPLC/MS system (Milford, MA) for analysis.
For tissue analysis, an optimized amount of tissue sample was processed using a tissue homogenizer in 5 volumes of 90% v/v LC/MS grade MeCN/H2O. 100 μL Tissue homogenate was mixed with 90 μL of 90% v/v LC/MS grade MeCN/H2O, 10 μL of LC-MS-grade water, and 10 μL 500 ng/ml Emtricitabine solution (as IS). After extraction, 10 μl of the sample solution was injected into Waters Acquity/Xevo-G2 UPLC/MS system (Milford, MA) for analysis.

In the next data set the test system is HBV. In kind it is cell-based, hepatitis B virus. The conditions noted are these: HepAD38 cells, qPCR of cellular supernatant; FIG. 5 legend; read-out: IC50, reduction of HBV production. The protocol:
Anti-HBV efficacy was evaluated on HepAD38 cells, using an adaptation of a procedure described in Ladner, Antimicrob. Agents Chemother. 41: 1715-20, 1997, incorporated herein by reference. HepAD38 cells were plated on collagen coated 96-well flat-bottomed plates at a density of 6×10^4 cells/well and grown for 3 days in the presence of 200 μL of Ham's F-12K (Kaighn's) Medium supplemented with 10% fetal bovine serum (FBS), 1% of an antibiotic solution (penicillin and streptomycin), and 0.3 mg/mL tetracycline at 37° C. in 5% carbon dioxide. On day zero the cells were washed with PBS and treated with tetracycline-free F-12K medium containing TFV, TFV-PA2, or TFV-PA3 (180 μL of medium supplemented with 20 μL of 10× concentration therapeutic solution to give 200 μL of medium at the final therapeutic concentration). Each therapeutic was screened at a minimum of five concentrations in quadruplicate. Water treated cells (180 μL of medium supplemented with 20 μL of H2O) were used as the negative control. On day three the medium was removed and replaced with 200 μL of fresh tetracycline-free medium containing the test compound at the appropriate concentration. […] HBV DNA was quantified by qPCR, using Integrated DNA Technologies PrimeTime Gene Expression Master Mix (Integrated DNA Technologies, Coralville, IA) and HBV TaqMan primer/probe (20×, Assay ID Vi03453405_s1, ThermoFisher Scientific, Pittsburgh, PA). A serial dilution of gBlocks Gene Fragments (Integrated DNA Technologies, Coralville, IA) of known HBV copy number was used as the standard for the absolute quantification of DNA copy number from cycle threshold values. […] Percent HBV production for each therapeutic concentration was determined based on average number of copies of HBV DNA produced by water treated cells and averaged between the three biological repeats of the assay before being plotted against concentration. […]

The conditions of data set [2]: cited from earlier work.
The nature of data set [3]: Stability of TFV-PAs and redox triggered release of free TFV (with/without DTT). In kind it is in vitro ADME. The conditions noted are these: 37° C.; for prodrug stability without DTT: 100 μM in 1× PBS, absence of DTT; for TFV released: 100 μM, 10 mM DTT, 1× PBS. The method, then: Stability of the TFV-PAs and redox triggered release of free TFV was assessed by aging TFV-PA solutions in the presence and absence of 10 mM dithiothreitol (DTT). 200 µM solutions of TFV-PA2 and TFV-PA3 solutions were prepared using deionized H2O and allowed to age at RT for 24 hours. A 20 mM solution of DTT was prepared by diluting a stock 1 M DTT solution with 2× phosphate buffered solution (PBS). 500 μL of 2× PBS was added to an equal volume of each TFV-PA solution to give the DTT negative samples with a final TFV-PA concentration of 100 μM in 1× PBS. 500 μL of 20 mM DTT solution was added to an equal volume of each TFV-PA solution to give the DTT positive samples with a final TFV-PA concentration of 100 μM and 10 mM DTT in 1× PBS. Each experimental condition was prepared in triplicate. Solutions were allowed to age at 37° C. and 50 μL samples were collected at predetermined time points (0, 1, 2, 4, 8, 12, 24, 48, and 72 h), flash frozen in liquid nitrogen, and then stored in a −20° C. freezer. 2 μL of hydrochloric acid was added to the DTT positive samples upon collection to quench the reaction. Samples were thawed and immediately analyzed using the Agilent Infinity II RP-HPLC. The relative proportions of remaining TFV-PA were determined using the ratio of the AUC of the TFV-PA peak in the 260 nm chromatograph to that of the 0 hour samples. For select samples, 1 μL of solution was diluted in 900 μL MeOH and 100 μL 0.1% aq. formic acid and subjected to ESI MS to identify the molecules in the sample.

The nature of data set [4]: In vitro prodrug release from TFV-PA hydrogels. The class given is physicochemical. The conditions noted are these: day 30, in vitro. The protocol:
To study gel release, 5 mM and 10 mM solutions of TFV-PA2 and TFV-PA3 were prepared using deionized water and allowed to age at RT for 48 hours. 45 μL of each solution was aliquoted into three 0.5 mL microcentrifuge tubes and 5 μL of 10× PBS was added to each vial to form a hydrogel with a final concentration of 1× PBS. Gels were allowed to set for 5-10 minutes before 60 μL of 1× PBS was added to the surface as the release media. The vials were then allowed to age at 37° C. Every 2 days, 50 μL of gel release supernatant was collected and replaced with an equal volume of fresh 1× PBS. Samples were frozen and stored at −20° C. for future analysis by RP-HPLC. On select days, 5 μL of release supernatant was collected 24 hours after supernatant exchange and used to prepare a negatively stained transmission electron microscope grid for analysis with the Talos transmission electron microscope. The grid was prepared as described above, except the sample was blotted with 5 μL deionized water (wicked immediately) after the sample was wicked away to remove excess salts from the PBS. Once the release experiment was complete, samples were thawed and 1-2 mg of TCEP was added to 25 μL sample solution and an equal volume of acetonitrile, then vortexed and sonicated at 37° C. for 10 minutes to ensure complete cleavage of the TFV moiety from the TFV-PAs. […]

SMILES strings stand for the structures. Residues, ends and D or L forms follow the SMILES beside them. *: point of attachment. X1 = C[C@H](Cn1cnc2c(N)ncnc21)OCP(=O)(O)OCCS*; Palmitoyl = CCCCCCCCCCCCCCCC(=O)*

The term MRT denotes a mean duration of stay, worked out from the concentration-time curve. As to `Nc1ccn([C@@H]2CS[C@H](CO)O2)c(=O)n1` [3TC, 2′,3′-Dideoxy-3′-Thiacytidine], in data set [1] (after three days, mice), the “drug levels after free drug administration” value is “below detection”. Besides, the MRT in data set [1] (male, Balb/cJ, mouse, in vivo, sc, 75 mg/kg) is 50.4 h.

In general, IC50 refers to the point on the concentration scale where inhibition reaches its midpoint. What is called log P is a log measure of how a compound divides between an organic and an aqueous phase. In the case of `C[C@H](Cn1cnc2c(N)ncnc21)OCP(=O)(O)O` [TFV, tenofovir, reference compound], in the data set on HBV, the IC50 came out at 1100 nM. Moreover, the “log P” value in data set [2] is on record as −2.5.

For the compound `CCCCCCCCCCCCCCCC(=O)N[C@H](C(=O)N[C@H](C(=O)N[C@@H](CSSCCOP(=O)(O)CO[C@H](C)Cn1cnc2c(N)ncnc21)C(=O)N[C@@H](CCC(=O)O)C(=O)O)C(C)C)C(C)C` [TFV-PA2] (Palmitoyl-VVC(X1)E-OH), the “prodrug stability without DTT” value in data set [3] is “stable at 37 °C and in 1× PBS for 3 days”. Also, the results for the TFV released entry in data set [3] (after 1 hour) and in data set [3] (by 24 hours) were “more than 90%” and “all TFV released”, respectively. Moreover, the IC50 in the data set on HBV was found to be 1500 nM.

`CCCCCCCCCCCCCCCC(=O)N[C@H](C(=O)N[C@H](C(=O)N[C@H](C(=O)N[C@@H](CSSCCOP(=O)(O)CO[C@H](C)Cn1cnc2c(N)ncnc21)C(=O)N[C@@H](CCC(=O)O)C(=O)O)C(C)C)C(C)C)C(C)C` [TFV-PA3] (Palmitoyl-VVVC(X1)E-OH): in data set [4], the “initial prodrugs remaining in hydrogel” value is recorded as “more than 80%”. The “prodrug stability without DTT” value in data set [3] was “stable at 37 °C and in 1× PBS for 3 days”. The TFV released result in data set [3] (after 4 hours) is “more than 70%”; in data set [3] (by 24 hours) it was “all TFV released”. Moreover, the IC50 in the data set with HBV is 250 nM.
